Measurements: paper PMC4881018, “Sec15 links bud site selection to polarised cell growth and exocytosis in Candida albicans” (Scientific Reports, 2016)

T1: GST-Sec15^550–892 (C. albicans, UniProt A0A1D8PM29 550-892)
T1 construct: The methods say only that similar strategies as for Sec15 and Rsr1 were used; source: E. coli, purified
T1 sequence (looked up): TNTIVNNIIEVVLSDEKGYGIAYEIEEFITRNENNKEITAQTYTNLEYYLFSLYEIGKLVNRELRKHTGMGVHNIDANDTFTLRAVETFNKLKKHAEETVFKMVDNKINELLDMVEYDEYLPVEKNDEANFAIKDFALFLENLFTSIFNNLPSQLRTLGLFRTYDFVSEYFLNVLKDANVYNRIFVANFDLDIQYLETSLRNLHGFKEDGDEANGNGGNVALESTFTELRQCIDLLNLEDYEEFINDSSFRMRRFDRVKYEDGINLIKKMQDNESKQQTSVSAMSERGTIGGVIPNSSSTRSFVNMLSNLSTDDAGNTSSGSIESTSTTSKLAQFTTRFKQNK

T2: His-Sec15^1–300 (C. albicans, UniProt A0A1D8PM29 1-300)
T2 construct: Sec15, exocyst component of Candida albicans, amino acids 1 to 300; Subcloned into pET21-a (Novagen); also called His6-Sec15^1–300; source: E. coli, purified
T2 sequence (looked up): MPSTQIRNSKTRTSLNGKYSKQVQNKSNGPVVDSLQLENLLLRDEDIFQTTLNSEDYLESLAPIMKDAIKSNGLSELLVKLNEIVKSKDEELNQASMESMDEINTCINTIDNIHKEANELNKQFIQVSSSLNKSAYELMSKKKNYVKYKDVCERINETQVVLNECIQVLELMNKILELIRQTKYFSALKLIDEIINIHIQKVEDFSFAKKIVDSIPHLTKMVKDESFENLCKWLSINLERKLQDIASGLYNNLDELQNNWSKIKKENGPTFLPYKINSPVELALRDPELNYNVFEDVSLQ

T3: His-Sec15^1–549 (C. albicans, UniProt A0A1D8PM29 1-549)
T3 construct: Sec15, exocyst component of Candida albicans, amino acids 1 to 549; Subcloned into pET21-a (Novagen); also called His6-Sec15^1–549; source: E. coli, purified
T3 sequence (looked up): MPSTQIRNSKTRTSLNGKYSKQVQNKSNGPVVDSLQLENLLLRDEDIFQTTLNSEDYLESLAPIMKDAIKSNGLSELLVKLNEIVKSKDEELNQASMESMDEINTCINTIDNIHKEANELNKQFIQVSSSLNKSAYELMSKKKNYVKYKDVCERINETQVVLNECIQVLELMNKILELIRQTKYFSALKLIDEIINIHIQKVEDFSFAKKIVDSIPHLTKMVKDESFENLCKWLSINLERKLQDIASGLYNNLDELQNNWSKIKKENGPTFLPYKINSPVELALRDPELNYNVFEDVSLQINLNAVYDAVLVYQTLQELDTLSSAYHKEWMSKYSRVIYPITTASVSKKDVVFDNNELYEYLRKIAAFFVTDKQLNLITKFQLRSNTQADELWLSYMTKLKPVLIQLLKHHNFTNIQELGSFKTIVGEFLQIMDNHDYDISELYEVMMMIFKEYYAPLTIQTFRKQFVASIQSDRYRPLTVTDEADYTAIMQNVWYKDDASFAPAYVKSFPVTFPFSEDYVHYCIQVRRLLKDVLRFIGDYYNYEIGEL


Columns and labels:
Test in all cases: pull-down; GST fusion protein immobilised on glutathione-Sepharose beads (20 μl), incubated with 20 μg of purified His-tagged protein in 200 μl binding buffer (1× PBS, 1 mg/ml ovalbumin, 10 mM β-mercaptoethanol, 0.1% IGPAL-30), 1 hour at room temperature; four washes; anti-His blot
Conditions in all cases: both partners purified
[1] = biological target: T1, GST-Sec15^550–892
[2] = biological target: T2, His-Sec15^1–300
[3] = biological target: T3, His-Sec15^1–549

Binder | binding result [1] | binding result [2] | binding result [3]
His-Bem1^1–300 (domain or fragment, C. albicans, UniProt A0A1D8PLB6 1-300, looked up, Bem1, polarity determinant of Candida albicans, N-terminal 300 amino acids; also called His6-Bem1^1–300; N-terminal 300 amino acids of Bem1; source: similar strategies as for the E. coli proteins) MIKTFRKSKRSSSNSSSPKKTISRVSSTSSNQTSHDGILQSPKKVIRALYDYEPQGPGELKFFKGDFFHVLDDVDDELHKEAEANGWIEATNPMTQLKGMVPISYFEIFDRSRPTVTASSNSFTNSIDIQHQHQHQQGIHNGTGNRNLNQTLYAVTLYEFKAERDDELDIMPNENLIICAHHDYEWFIAKPINRLGGPGLVPVSYVKIIDLLNPNSHYTSIDTSRRSQVIQVINGFNIPTVEQWKNQTAKYQASTIPLGSISGSGTPPTSANSQYFDNHTMTSNRSSSGSSISIVEASVD | binds | – | –
GST-Rsr1^K16N (GDP-locked form of Rsr1) (natural protein, Rsr1, Ras-family GTPase of Candida albicans; GDP-locked mutant K16N; Made with the pGEX vector system (Amersham Biosciences), which normally places GST at the N-terminus; also called Rsr1-GDP; recombinant Rsr1^K16N) MRDYKVVVLGAGGVGNSSITVQFVQGVYVESYDPTIEDSYRKQIEVDGRACDLEILDTAGVAQFTAMRELYIKSGKGFLLVYSVTDENSLKELLALREQVLRIKDSDNVPMVLVGNKCDLEDDRVLSIEDGVKVSQDWGLVPFYETSAMYKTNVDEAFIDVVRQIMRKEAAISAEKKQQKELQKQQQQQQQEQDAEGQQQQQKSGKSKSSATQKDATADGQTDVNARLKQSINDHPKSSSGSKFCTII | – | binds | binds
